This experiment deals with pyruvate kinase M2 (PKM2), endogenous (human (endogenous in A375 and G361)) (UniProt P14618). Put plainly: native gel or EMSA; BN-PAGE of cell lysates with β-actin as loading control; A375 with TIPE interference, G361 with TIPE overexpression; dimer and tetramer bands of PKM2.

Sequence of pyruvate kinase M2 (PKM2), endogenous, P14618 1-531 (enzyme; other documents disagree on this pair) (P14618 whole entry): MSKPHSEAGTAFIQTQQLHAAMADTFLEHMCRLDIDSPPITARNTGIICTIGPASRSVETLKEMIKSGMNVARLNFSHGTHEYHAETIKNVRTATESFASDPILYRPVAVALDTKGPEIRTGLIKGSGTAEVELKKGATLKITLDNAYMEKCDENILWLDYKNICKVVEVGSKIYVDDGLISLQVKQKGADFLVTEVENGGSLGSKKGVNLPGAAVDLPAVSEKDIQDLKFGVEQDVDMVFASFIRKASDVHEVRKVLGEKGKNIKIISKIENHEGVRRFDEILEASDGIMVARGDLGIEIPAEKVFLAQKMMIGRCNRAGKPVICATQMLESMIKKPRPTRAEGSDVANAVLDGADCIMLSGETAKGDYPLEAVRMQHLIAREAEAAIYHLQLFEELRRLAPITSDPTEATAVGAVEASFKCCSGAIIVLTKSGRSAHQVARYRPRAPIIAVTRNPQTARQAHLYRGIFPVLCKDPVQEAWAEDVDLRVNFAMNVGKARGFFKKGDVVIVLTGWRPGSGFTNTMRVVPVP

Consider “pyruvate kinase M2 (PKM2), endogenous, P14618 1-531 (enzyme; other documents disagree on this pair)”, for which the stoichiometry N came out at 2.
